Measurements as given in a protein production outcome set (Wang et al. 2014).

assay: label from the status in PepcDB records
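Note: failed if final PepcDB status was selected cloned or expressed and not failed if soluble or beyond.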

Sequence	protein production
DVKEFCKKSLRVRKRQLKDLLYSLEDDNKELFERVIKLFENFKNRDEIFYEKISEEIVWTVKKNILFVNIEEGILKPQSKLDLLAIREILDEIKT	failed
DVTERRRAREALQESEARMKGIASNVPGMVFRLERPRAGAFSDFAYISEGSEALVGYSARELIESGRGIRGLVHPDDRERYWSSQMAALDENRDWHWQGRILTRQGELRWADIKASARCFEDGRAVWDGVVWD	failed
DVVVVGSGVAGPIVARDVAKAGFSVLLVDKKPAIGTPKQCAEGINVNVFKEFDIPYDKRFINREIYGARIYSPSGYTAELRYDKVSGVILERKVFDKMLAYYAAKAGADVWARTEVIDLLRKEGKIMGVKAKHEGELVEIEAKIIVAADGVESTVARLAGINTYAPPHEFDSAYEYEMIIEGYDPDLIHLWFGNEIAPRGYVWVFPKDEDRANVGIGINSDNEKTAKYYLDKWLKENNIPTKKILEINVGLVPVGGFVRELVKENVAVVGDAARQVNPVHGGGMYEAMKAANILAKWIVKALEEENLELLKNYTKEWWEVEGPKMERLLKLRRAMEKLTDEDIDVFVQLLGGTDLEKLAGGNYFEVVKALMKHPKVLMSKRRLEILKALL	failed
EDYSCFIFRHFPQVQIHPHAQRAAQAAEAAAAQGQFWLMNDTLFDHQQRLENGYLVEYANDLGLDIPQFLKELAKQVHVDRIKKDIEGGLQSGVMAVPALFVNGILYRDCWNIKQLIATIIASSY	failed
EEKVVAEQQADGTWLMDGWISIRKASNLLEHDLVDEAERYSTLGGYLLWQFGYIPAAGEQITVDGLIFEIVSVNKHNIGKVRVHRTQ	not failed
EEKYVTVQPYTSQSKDEIGFEKGVTVEVIRKNLEGWWYIRYLGKEGWAPASYLKKAKD	not failed
EFTTMLGPAVLGLSLWALLHPGTGAPLCLSQQLRMKGDYVLGGLFPLGEAEEAGLRSRTRPSSPVCTRFSSNGLLWALAMKMAVEEINNKSDLLPGLRLGYDLFDTCSEPVVAMKPSLMFLAKAGSRDIAAYCNYTQYQPRVLAVIGPHSSELAMVTGKFFSFFLMPQVSYGASMELLSARETFPSFFRTVPSDRVQLTAAAELLQEFGWNWVAALGSDDEYGRQGLSIFSALAAARGICIAHEGLVPLPRADDSRLGKVQDVLHQVNQSSVQVVLLFASVHAAHALFNYSISSRLSPKVWVASEAWLTSDLVMGLPGMAQMGTVLGFLQRGAQLHEFPQYVKTHLALATDPAFCSALGEREQGLEEDVVGQRCPQCDCITLQNVSAGLNHHQTFSVYAAVYSVAQALHNTLQCNASGCPAQDPVKPWQLLENMYNLTFHVGGLPLRFDSSGNVDMEYDLKLWVWQGSVPRLHDVGRFNGSLRTERLKIRWHTSDNQKPVSRCSRQCQEGQVRRVKGFHSCCYDCVDCEAGSYRQNPDDIACTFCGQDEWSPERSTRCFRRRSRFLAWGEPAVLLLLLLLSLALGLVLAALGLFVHHRDSPLVQASGGPLACFGLVCLGLVCLSVLLFPGQPSPARCLAQQPLSHLPLTGCLSTLFLQAAEIFVESELPLSWADRLSGCLRGPWAWLVVLLAMLVEVALCTWYLVAFPPEVVTDWHMLPTEALVHCRTRSWVSFGLAHATNATLAFLCFLGTFLVRSQPGRYNRARGLTFAMLAYFITWVSFVPLLANVQVVLRPAVQMGALLLCVLGILAAFHLPRCYLLMRQPGLNTPEFFLGGGPGDAQGQNDGNTGNQGKHE	failed
EIESRELADIPVLHAYPVGQKDTPLPCVIFYHGFTSSSLVYSYFAVALAQAGLRVIMPDAPDHGSRFSGDAARRLNQFWQILLQSMQEFTTLRAAIAEENWLRDDRLAVGGASMGAMTALGITARHPTIKCTASMMGSGYFTSLARSLFPPLIPETAAQQNEFNNIVAPLAEWEATNHLEQLGDRPLLLWHGLDDDVVPADESLRLQQALSETGRDKLLTCSWQPGVRHRITPEALDAAVTFFLQHL	failed
EKAVLIGEKEADITFVTWGSQKGPILDVIEDLKEEGISANLLYLKMFSPFPTEFVKNVLSSANLVIDVESNYTAQAAQMIKLYTGIDIKNKILKYNGRHMTEDEILKSAKEILNKESLMVVLEDGS	failed
EKEDSKTRGEKIKSDFFELLSNHHLDSQSRWSKVKDKVESDPRYKAVDSSSMREDLFKQYIEKIAKNLDS	not failed
EKGDWAQFGRYAEANKTVKVPSNVVFMGNSITDGWWPADSTFFIRNNFVDRGISGQTTSEMLVRFRQDVINLKPKAVVILAGINDIAHNNGVIALENVFGNLVSMAELAKANHIKVIFCSVLPAYDFPWRPGMQPADKVIQLNKWIKEYADKNGLTYVDYHSAMKDERNGLPANLSKDGVHPTLEGYKIMEKIVLEAIHKTVK	not failed
EKGLEIAQERKARDEGWGDSIATMEMILKNAQGESSTRLMRLKSLEVEGDGDKGLTIFDQPRDVTGTAFLNHSHTIGADDQWLYLPALKRVKRISSRNKSGPFMGSEFAYEDLSSFEIEKYRFNHLKDEKFNGQDVFVLEQIPTDKNSGYTKQVVWLDKAHYRPLKVEFYDRKGALLKTLTFANYKQYLDKYWRAHTMAMTNHQTGKSTELNTSDLRFQTGLEENDFNKNVLKR	not failed
ELALWSPEVKIVELVKDCKGLGFSILDYQDPLDPTRSVIVIRSLVADGVAERSGGLLPGDRLVSVNEYCLDNTSLAEAVEILKAVPPGLVHLGIC	not failed
EMEEREIINNVFEFGDMQAKNAMVQRIDMVAIDMEDSYDEIIQVFKTEKLSRMPVYEETIDDIVGILNIKDIIFLSDEEIESFDIKNYMREPFFTYEFKKITQLLEEMKLEKSQMAIVVDEYGGTSGLLTIEDLVEVIVGDIE	not failed
EQAEAQLAELDLLASMFPGENELIVNDQLAVAELKDCIEKKTMEGRSSKVYFTINMNLDVSDEKMAMFSLACILPFKYPAVLPEITVRSVLLSRSQQTQLNTDLTAFLQKHCHGDVCILNATEWVREHASGYVSRDTSS	not failed
EQLPVLQTVPFAGSAEPVSLTRESVERSVGEANMQEQRKRVHAMLRDYELQLRINSDASQQDAHLTPDSE	not failed
EQLTLRHGTRADISEIAPLLARNAADPCELVDLEHALDLLTHESSHFLAVVRNARGKIIAAMQLTIVPEFSRGGALHLHIEGPFIIPEYRTTDLDKKLRAWAVEHGRARGVKVEEVVG	failed
EQVFAAECILSKRLRKGKLEYLVKWRGWSSKHNSWEPEENILDPRLLLAFQKKEHEKEVQN	not failed
ESELACVIALQDITLRVQETERLEKMLEHLPVCMVIMNQNDEVEQINQTGIELLGFERDEIVGNPVDLFIPQEQVESHKALLKKFFQEETVIDTRSLERDFKVKHKSGKLIEIQAVYTPVHFHN	failed
EVQKPLHEQLWYHGAIPRAEVAELLVHSGDFLVRESQGKQEYVLSVLWDGLPRHFIIQSLDNLYRLEGEGFPSIPLLIDHLLSTQQPLTKKSGVVLHRAVP	not failed
EVVVTALGIKREKKMLGYAVQELKSDELNKTGDPSVTSALQGKVAGLQMNTSATGLGGSTKITIRGNSSLTDNNQPLWIVDGVPFSDTSTSSASRYDGVDRGSASMDINPDDIESISVLKGPNAAALYGSRAGNGVILITTKKGSK	failed
FATTDDVILLWRQLSVDEIKRAEALLETVSDTLRLEASKVGKNLDEMILETPYFATVLKSVTVDIVARTLMTATQGEPMSQESQSALGYTWSGTYLVPGGGLFIKDSELKRLGLKKQRYGGI	failed
FEELLNALHDGVYITDGQGQTLKVNQAYERLTGLNGAELLGRPMQELVKSGVISQSASLRVLQDGRPVSVMQSLSHGKKLLVSATPILAADQSIRYVVSTVRDMTELLRIKRERDELQQL	failed
FFSNAEVAERLAYPQLIEALRIGLAKPCSAPLRNCHALPAQASLLQMPVWQAGAGIGVKLVTVFPGNGARGLPAVAAVFALFDGEDGRPLALLEASELTARRTACSSALAADYLARDDARRLLVVGCGTLAAHMVRAHACVRDYRHIDIWGRDPAKAAALAARLREEGYPARAADGLRAAVEAADCVSCVTTSREALVRGAWLKPGVHLDLVGAFLPSMRETDVLAVARARVVVDTRAGALEEAGDLLQAIAEGAIGREAISTELRDLLSGAGRRGDPGEITLFKSVGYALEDLVAARRVV	failed
FKAVTYVADPVDVTYQSLNVSVPVEIDGKAVDASHAPIVFSNAVGGYMPSSTAGNTGIGQGVNAKLSLASGFVVVDPGARGRTLVDTAGVYYGVAPAAIVDLKAAIRYLRHNKGRVPGDTDRIVATGVSAGGALTSLLGASGDSDRYAPYLQELGAADASDAVFAAAPYCPITDLEHADMAYEWNWGTNPLPTGAQVDQTLSKELRSGFAEYQASLNLRGKNGFGRITARNYDAYMVKTHLEPSATRYLGALPDADRAAYLTANPWITWSGGRASFGWGDFLTHVGARKKNVPSFDTFTLAAPENNLFGVATTKARHFTQWSLRKATGDDGARLDADLPEKIDLMNPMYFIEHQNPGRSRHWFIRVGTKDSDTSLTVVGNLTAGLENLGDDVDTYMYWDGGHGANQDAPDFITWIRSVSG	failed
FLSTRDNVDELRKIENKSSFVSADNMPEYVKGAFISMEDERFYNHHGFDLKGTTRALFSTISDRDVQGGSTITQQVVKNYFYDNDRSFTRKVKELFVAHRVEKQYNKNEILSFYLNNIYFGDNQYTLEGAANHYFGTTVNKNSTTMSHITVLQSAILASKVNAPSVYNINN	failed
FYTPKAVVQLVVELIDPRPGHSVYDPTCGSGGMLVESAHHVSGLPDGTLMGKPNVLLYGQEKNLGTWAIAKLNLYLHNMHASIERGDTLVEPKHLDGDYLKTFDRVIANPPFSAKSWWTPLELSNENEQENGKKVKAPNYKQVSDPYGRLVYGVPPRGYADLAFAQHMLASLKADGRMGVILPHGVLFRSGEEGKIREGLLFGTGAASGNQPGDVIEAIVGLPSALFYNTGIPACVLILNKQKPSALKDKVIIIDGSRDYLEGKAQNSLHAEDILRIVSTH	failed
FYTPSFITSYMCKESITPIVLDKFNAIYQWDCENLKALRGEIDRNFSNEKAKEYLNTLLTLRICDPAVGSGHFLVSALNEMVRVAYELGLIASLYRYDLKLENDEIIIHHTPTGEIFNYIKPDSENDPHHHIQKELFNLKKSIIENCLFGVDINPNSCEITKLRLWIELLKYSYYIFEKGKNTNALETLPNIDINIKCANSLISRFALKDKALLKSEKNKNLEYSIAEYKELVKIYKDPKILETLTHPIKDSNAVRKYAKERLYQELKQNPNKDFKKALNDRIEKIKKAFKLTLNPPPKELKFKKFLKEHLELYGKSILEEANYNGLELEALALEKQMANLFFDYRPYPKLDKSDKVVGLEHFNRYVLTSYKDLQDENERYANALEWRFEFPEVLDDEGDFSGFDCIIGNPPYIRQEHIKDLKPLLEKQYQDFYNSTADIYTYFFALAFHLLKEKGFSAFITSNKYTRAKYGAKLREWLLKKTTIVSYMELNALKVFESAAVDTSIIHFIKQTPSKESEFKYYEPTPNDKDDLKSTPHLLMKQNVLST	failed
GDETGVMDSLLEALQSGAAFRRKRGPRQANRKAGCAVTSLLASELTKDDAMAAVPAKVSKNSETFPTILEEAKELVGRAS	failed
GDGEEYTFWDPEYAGLQNGLKAVLPNAHNYITQFSANERRYIVYSTSSTQPGTYYFGDRDEKVLFPIAERYSQLSTEQLADTQYLSYEARDKLKIDAYLTVPKGFKAKHLPTIIFPHGGPISYDSNDFDYWAQFFANRGYAVFRMNFRGSAGYGYEFMKAGLKSWGLEMQNDVEDGTRYLINQGISDPQRICIVGASYGGYAALMGAAMTPDLYRCAVSVAGVTDVANLVRSSRRFTNYEVVKEQIGDDFNVLYERSPISKADKITIPVLLLHGDKDRVVKVQHSREMFDELKSRKKNVEYIELENGGHYLSNNDHRLTTFKALDKFLADNLK	failed
